Test results: patent US20220289859A1

Target: FcγRIIIa (UniProt P08637)
Experiment: SPR as in Example 4; glyco-enriched samples of belantamab

FcγRIIIa, sequence (P08637 17-208 limits assumed): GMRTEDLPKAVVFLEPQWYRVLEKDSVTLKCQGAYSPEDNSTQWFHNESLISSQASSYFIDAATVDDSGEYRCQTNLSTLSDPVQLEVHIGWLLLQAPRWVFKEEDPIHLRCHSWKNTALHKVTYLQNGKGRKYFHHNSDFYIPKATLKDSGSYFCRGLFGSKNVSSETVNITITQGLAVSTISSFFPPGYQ

belantamab deglycosylated with PNGaseF (antibody)
Specific FcγRIIIa binding activity: 8%
